As a reminder, the Kd is the free concentration of one partner at which half of the binding sites on the other are occupied at equilibrium, for simple one-to-one binding. For orientation: stoichiometry N means the number of molecules, sites or subunits per partner or assembly.

Data on four molecules can be found in PMC11253611, “The chaperone PrsA2 regulates the secretion, stability, and folding of listeriolysin O during Listeria monocytogenes infection” (mBio, 2024).

Changes are numbered by the printed parent chain. Names and notes keep the numbering of the source.

Series [1] has as its target recombinant listeriolysin O (without the signal sequence, 25-529) (Listeria monocytogenes 10403S) (UniProt P13128). As to the kind of experiment: MST; pH 6.5, 25°C; NHS-dye-labelled PrsA2 or mutant (20-150 nM) with serially diluted unlabelled LLO; 20 mM MES, 100 mM NaCl, 1 mM β-mercaptoethanol, 10% glycerol, 0.05% Tween 20; 1:1 model in PALMIST.
Series [2] shares this target. As to the kind of experiment: ITC; pH 6.5, 25°C; PrsA2 (19.0 µM) or mutant titrated into LLO (0.4 µM); 20 mM MES, 100 mM NaCl, 1 mM β-mercaptoethanol, 10% glycerol; independent binding model; n counts PrsA2 monomers per LLO. Background: ITC needs no label: the signal is the heat of the interaction.
The target of series [3] is T1, recombinant listeriolysin O (without the signal sequence, 25-529) (Listeria monocytogenes 10403S, UniProt P13128 25-529).
T1 construct: also called LLO; source: E. coli BL21 (DE3*), purified (nickel-NTA, dialysis)
Put plainly: ITC; pH 7.4, 37°C; PrsA2 titrated into LLO at low LLO concentrations to mitigate heats of self-aggregation; 20 mM MES, 100 mM NaCl, 1 mM β-mercaptoethanol, 10% glycerol; independent binding model; n counts PrsA2 monomers per LLO. Conditions: both partners purified.

Series [4] deals with the molecule itself. Put plainly: cross-linking; 500 ng His-tagged protein with 10 µM BS3 for 1 hour at room temperature in 20 mM HEPES, 200 mM NaCl, pH 6.5; heated at 85°C, SDS-PAGE, anti-His Western blot.
The target of series [5] is T1, recombinant listeriolysin O (without …). Put plainly: MST; pH 7.4, 25°C; NHS-dye-labelled PrsA2 (20-150 nM) with serially diluted unlabelled LLO; 20 mM MES, 100 mM NaCl, 1 mM β-mercaptoethanol, 10% glycerol, 0.05% Tween 20; 1:1 model in PALMIST. Conditions: both partners purified.
Series [6] shares this target. As to the kind of experiment: ITC; pH 7.4, 25°C; PrsA2 titrated into LLO; 20 mM MES, 100 mM NaCl, 1 mM β-mercaptoethanol, 10% glycerol; independent binding model; n counts PrsA2 monomers per LLO. Conditions: both partners purified.
Series [7] shares this target. As to the kind of experiment: MST; pH 6.5, 37°C; NHS-dye-labelled PrsA2 (20-150 nM) with serially diluted unlabelled LLO; 20 mM MES, 100 mM NaCl, 1 mM β-mercaptoethanol, 10% glycerol, 0.05% Tween 20; 1:1 model in PALMIST. Conditions: both partners purified.
Series [8] has the same target. Put plainly: ITC; pH 6.5, 25°C; PrsA2 (19.0 µM) or mutant titrated into LLO (0.4 µM); 20 mM MES, 100 mM NaCl, 1 mM β-mercaptoethanol, 10% glycerol; independent binding model; n counts PrsA2 monomers per LLO. The settings on record: both partners purified.
Series [9] shares this target. As to the kind of experiment: MST; pH 5.5, 37°C; NHS-dye-labelled PrsA2 (20-150 nM) with serially diluted unlabelled LLO; 20 mM MES, 100 mM NaCl, 1 mM β-mercaptoethanol, 10% glycerol, 0.05% Tween 20; 1:1 model in PALMIST. The settings on record: both partners purified.
The target is the same in series [10]. Put plainly: ITC; pH 6.5, 25°C; PrsA2 (19.0 µM) or mutant titrated into LLO (0.4 µM); 20 mM MES, 100 mM NaCl, 1 mM β-mercaptoethanol, 10% glycerol; independent binding model; n counts PrsA2 monomers per LLO. Conditions: both partners purified. This is another data set of the same source.
Series [11] shares this target. Put plainly: MST; pH 5.5, 25°C; NHS-dye-labelled PrsA2 (20-150 nM) with serially diluted unlabelled LLO; 20 mM MES, 100 mM NaCl, 1 mM β-mercaptoethanol, 10% glycerol, 0.05% Tween 20; 1:1 model in PALMIST. The settings on record: both partners purified.
Series [12] shares this target. Put plainly: MST; pH 6.5, 25°C; NHS-dye-labelled PrsA2 or mutant (20-150 nM) with serially diluted unlabelled LLO; 20 mM MES, 100 mM NaCl, 1 mM β-mercaptoethanol, 10% glycerol, 0.05% Tween 20; 1:1 model in PALMIST. Conditions: both partners purified.
Series [13] has the same target. Put plainly: MST; pH 7.4, 37°C; NHS-dye-labelled PrsA2 (20-150 nM) with serially diluted unlabelled LLO; 20 mM MES, 100 mM NaCl, 1 mM β-mercaptoethanol, 10% glycerol, 0.05% Tween 20; 1:1 model in PALMIST. The settings on record: both partners purified.
The target is the same in series [14]. Put plainly: ITC; pH 5.5, 37°C; PrsA2 titrated into LLO; 20 mM MES, 100 mM NaCl, 1 mM β-mercaptoethanol, 10% glycerol; independent binding model; n counts PrsA2 monomers per LLO. Conditions: both partners purified.
The target is the same in series [15]. Put plainly: ITC; pH 6.5, 37°C; PrsA2 titrated into LLO; 20 mM MES, 100 mM NaCl, 1 mM β-mercaptoethanol, 10% glycerol; independent binding model; n counts PrsA2 monomers per LLO. The settings on record: both partners purified.
Series [16] shares this target. As to the kind of experiment: ITC; pH 5.5, 25°C; PrsA2 titrated into LLO; 20 mM MES, 100 mM NaCl, 1 mM β-mercaptoethanol, 10% glycerol; independent binding model; n counts PrsA2 monomers per LLO. Conditions: both partners purified.
The target is the same in series [17]. Put plainly: cell-based or functional assay.
Series [18] has the same target. As to the kind of experiment: ITC; pH 6.5, 25°C; PrsA2 (19.0 µM) or mutant titrated into LLO (0.4 µM); 20 mM MES, 100 mM NaCl, 1 mM β-mercaptoethanol, 10% glycerol; independent binding model; n counts PrsA2 monomers per LLO. The settings on record: both partners purified. The source holds these as a separate data set.
Series [19] has the same target. Put plainly: MST; pH 6.5, 25°C; NHS-dye-labelled PrsA2 or mutant (20-150 nM) with serially diluted unlabelled LLO; 20 mM MES, 100 mM NaCl, 1 mM β-mercaptoethanol, 10% glycerol, 0.05% Tween 20; 1:1 model in PALMIST. Conditions: both partners purified. This is another data set of the same source.
The target is the same in series [20]. Described as above. The settings on record: both partners purified. This is another data set of the same source.

For “PrsA2 N+C (foldase domain only, lacks the entire PPIase domain) (from UniProt Q8Y557 21-293) (domain or fragment)”, the dissociation constant (Kd) in [1] was 330 nM. Also, in series [2], the Kd stood at 357 nM, the dH is -16.6 kcal/mol and the stoichiometry N is 2.08.

B1: recombinant PrsA2 (wild type, without the signal sequence) (natural protein)
chain: CGGGGDVVKTDSGDVTKDELYDAMKDKYGSEFVQQLTFEKILGDKYKVSDEDVDKKFNEYKSQYGDQFSAVLTQSGLTEKSFKSQLKYNLLVQKATEANTDTSDKTLKKYYETWQPDITVSHILVADENKAKEVEQKLKDGEKFADLAKEYSTDTATKDNGGQLAPFGPGKMDPAFEKAAYALKNKGDISAPVKTQYGYHIIQMDKPATKTTFEKDKKAVKASYLESQLTTENMQKTLKKEYKDANVKVEDKDLKDAFKDFDGSSSSDSDSSK
notes: also called Lm PrsA2; pQE60-prsA2; source: E. coli BL21 (DE3*), purified (nickel-NTA, dialysis)
Turning to B1, the Kd in [3] was found to be 67.2 nM; in series [5], 23 nM; in [6] it was 46.1 nM; in series [7] it was 28 nM; in [8], 37.7 nM; in [9], 190 nM. The Kd in [10] is 37.8 nM; in series [11], 150 nM; in [12], 12 nM; in [13], 39 nM; in series [14], 330 nM; in [15], 88.3 nM. Moreover, the Kd in series [16] turned out to be 201 nM. Also, the dH in series [3] is -12.8 kcal/mol; in series [6] it was -21.7 kcal/mol; in series [8], -105 kcal/mol; in series [14], -5.49 kcal/mol; in series [15], -30.9 kcal/mol; in series [16], -7.93 kcal/mol. Besides, the “stoichiometry N” value in series [3] stood at 2.01; in series [4], 2; in series [6], 2.11; in [8] it was 2.21; in series [14], 1.95; in series [15] it was 1.73. In addition, the “stoichiometry N” value in series [16] is 1.96. For the same molecule, the Ka in series [10] was 2.65e+07 M⁻¹.

B2: PrsA2 V91T (natural protein, Listeria monocytogenes, UniProt Q8Y557 21-293, looked up)
chain: B1 chain with V71T
modifications: Red NHS dye (NanoTemper 2nd Generation) on primary amines, in the MST experiments only
notes: Same limits and tag as m1; also called foldase domain mutant; source: E. coli BL21 (DE3*), purified (nickel-NTA, dialysis)
In the case of B2, the “LLO hemolytic activity at pH 5.5 and 30°C after 1 hour at pH 7.4 and 37°C with the chaperone mutant at a 30:1 molar ratio (protection assay), against wild-type PrsA2 or PrsA2 N+C” value in series [17] is approximately 2 fold. In addition, in series [18], the Kd came to 9.64 nM, the dH is -4.21 kcal/mol and the “stoichiometry N” value came out at 2.11. In [19], the Kd was found to be 2.8 nM.

B3: PrsA2 No dimer mutant/PrsA2^M (V28A/L40A/Y41A/M44A) (natural protein, Listeria monocytogenes, UniProt Q8Y557 21-293, looked up)
chain: B1 chain with V8A, L20A, Y21A, M24A
modifications: Red NHS dye (NanoTemper 2nd Generation) on primary amines, in the MST experiments only
notes: Same limits and tag as m1; also called PrsA2 monomer; PrsA2 dimer mutant; source: E. coli BL21 (DE3*), purified (nickel-NTA, dialysis)
On to B3, for which the “LLO hemolytic activity at pH 5.5 and 30°C after 1 hour at pH 7.4 and 37°C with the chaperone mutant at a 30:1 molar ratio (protection assay), against wild-type PrsA2 or PrsA2 N+C” value in series [17] was approximately 2 fold. In series [20], the Kd is approximately 330 nM. Further, in series [18], the Kd stood at 206 nM, the dH was -21.3 kcal/mol and the “stoichiometry N” value amounted to 2.06. The Kd in series [19] came to 190 nM.
